# Data from a protein production outcome set (Wang et al. 2014).
# Assay: label from the status in PepcDB records
sequence,measurement,value
DSRQRFKRQMVEQAAPWLLELSARTGLVTDLSSFDGESLEVLESAVPEVLRKRYPSNSRIVGQHASLFHSAMGKACLGALASAEVERLAEQEQVPAEARQQCLESQHLGFGQRTEGHWEYPVRLPFLIRAVALPLQAEGRVIGSIALHWPRDLACVEQVRNRHLWLLAETVERVQKDI,protein production,failed
MKNMDEERKYGLYSLIIGLLCVIGIVMLNGLICYVLYIIAVPSLLYGIGAFIIPKTRRKDAGKLPFRGY,protein production,failed
MEVLLDVKERMSILKNFYDEVRVVDPINNIVFSDDFNLKINNKFNEKDCSLSNCYDVWGKKSMCSTCISKKAYLKNDTFIKLEYNKNHVFLVIASPIEFNENKYVVEILKDITNNGSIVDGSGEGNYLDLTMKKMGENLIKDYLTGVYNKRYIDQRFSKEAHRNLKESIPTTVIMTDIDSFKKVNDTYGHLVGDKILRDFAKVLNNNIRENSDWIGRYGGEEFIIVLNNTNLKNGVKVAEKLRKIIEKMSFDYGDLSLKITSSFGVCEVSEKEDPFDTIKNADEKLYMAKMTGRNKTVF,protein production,failed
MINMKPQYYLGMMSGTSLDGVDIVLVDFSQDPQLILSDFFPMPEDLREKLTTLIQVGETTLQNLGELDHKLALLYSDCVNAFLQKNTFLPNQIQAIGCHGQTVWHSPNSQFPFTMQLGDMNLLAAKTGISVIGDFRRKDMAWGGQGAPLVPAFHEAVFSNSNFATAVLNIGGISNVSILFPNQAVIGFDTGPGNTLLDQWIEKHQGLRYDENGEWAAKGNVNKVLLDELLNEPFFSLPAPKSTGRELFNLVWLNHKIAKIREKLTALSVEMSFRPEDVQATLVELTVTSIVNALNQLQTDLPKRLLVCGGGAKNSLIMRGLHDNLLDWQVSTTTEQGFDIDYVEAAAFAWLAYCRINNLPANLPSVTGAKSAVSLGAIFPKD,protein production,failed
MAYVSMGEAHRRITEYLNRFCDAVSYQDSSTLCRLLSFSSNSPPLLSLADALNVFQDSSSLIRQSDRFSEYGEILAHVFRSLQSYRVGNLVEAYLAFDKFANAFVQEFRNWESAWALEALYVVCYEIRVLAEKADKDLTSNGKSPEKLKAAGSLLMKVFGVLAGKGPKRVGALYVTCQLFKTYFKLGTVNLCRSVIRSIETARIFDFEEFPRRDKVTYMYYTGRLEVFNENFPAADTKLSYALQNCNPKRERNIRMILKYLVPVKLSLGIIPKDELLRNYNLHEYTKIVQALRKGDLRLLRHALQEHEDRFLRSGVYLVLEKLELQVYQRLMKKIYINQKLSDPARAHQLKLEGIAKALRWLDMDMDLDEVECIMTILIYKNLVKGYLAHKSKVVVLSKQDPFPKLNGKPVSS,protein production,failed
MFLLSGDPCFKTPPSTAKSISIPGQDSSLQLTCKGGGTSSGGSSTNSLTGSRPPKARPTILSSGLPEEPDQNLSSPEEVFHSGHSRNSSYASQQSKISGYSTEHSRSSSLSDLTHRRNTSTSSSASGGLGMTVEGPEGSEREHRPPEKPPRPPRPLHLSDRSFRRKKDSVESHPTWVDDTRIDADAIVEKIVQSQDFTDGSNTEDSNLRLFVSRDGSATLSGIQLATRVSSGVYEPVVIESH,protein production,failed
MHLWWRYHLATIIILFAMILTIYFLVPPLFYIEIIGVIFILFLWYIISPGILLRVIKSKKVENEDVLRKFEYALALVQMKKIKLHEINSSKPNAFVLGNFLSYNVIVTRGLLESLNDRELISVLLHELHHIKNRDIEIQLIYVLIVNTFYIYIANYNPLLGLSELVIGVVLLFPVHRLLEKNADIKACRTTNWIPLNLANALVKIGYLSRFLPHEIIRDYSEVDLTLAKETILRDDKKGFIFSTHPALSERLKYISKFIKTL,protein production,failed
MDDGDTADDIMDATYRALCTHGYADLTMQDIADESDKSKAALHYHYDSKHDLLCAFLEYLYDGFVDRIEDPAGETPHERLLSLIDSVLDKPDDGSEEFGTAILEIRAHAPYEPGFRERLTKFDDYLVDELEVILEDGIADGTFKSDLDADETAQFIVTVLTGAATERVTTGRPVKCTRRMLTEYVETHLLDGQQEVTA,protein production,not failed
TKDFTWQTDWTFSLNNEKIKELAGGATYDSTGPWMVGEPLNSFYDFQYDRIWQNTQEDNHLMDVYRSLGLTFLPGQYKIVDQ,protein production,failed
EQVFQGKLTTVGNPKGNVTLVEFFDYQCIHCKKMASTIENLVKKDSGLRVIYKEFPIFGKTSDLASRVALAAGMQGKYQAMHNALITIDKRLDEKTVMDAAKSIGLDMQKLKKDMDSQEVTDILDANRQLAEKLHLMGTPAFIIGSTPDGQYKKGSEISFIPGATSEQSLRELIKKAAGN,protein production,failed
MADSRPRLVTGSPEGYPGHVDGRLRDARLNNPKGLTVDDRGNIYVADTVNNAIRKISEAGVTTIAGGKMVRGGGHVDGPSEDAKFSNDFDVVYLGSSCSLLVIDRGNQAIREIQLHFDDCADQYGSGFPLGIAVLVAAVFFGYMLALLQRRLSSIVSYHTDQEVFEAVPDQDPIKPVRPPLILTGDEQEKQEESFLGTLQIFISNAWVFSVELFSGMFPGLRKKQTVGLNFNHQETKHSAFSTTSWPIQESFVIHNKDEPPPVESRNATPGKIYPFMSKDATEKMQQLRQSRALYRSLDAEFLQEQQQEKHQQYHHRHHSTIPYTLYEQSSEKTNEIVFGPGQEQDQMNTHQNIHHRAHQFVSYPYGYYS,protein production,failed
MTKKAILLSFLGGFLSLSLEVIWIRLLGFQTFSLPQAFSFTLALFLLGIAFSSFIGKKVCQQGDASINYIGRIFFIAALFDCLAIGLISTTSNSFTNLVYSIFSIFCCALLRGIVFPIVHHLGSEHKKTGAAISNVYFANVLGCTIAPIFIGFYLLDQFTTQQTYLIVISITLIIACFCLTKRVFKAINALFAISVVFATALLPEKMISTLANEEDMQLETLIENKHGIIQVYLDKNQDHLVYGSNVYDGQLNVNLNHNSNGIHRAYLLPAHRK,protein production,failed
MTEDTADSGTGGRGPTRRHLVRRALALGGALAVAPFPAGPAKAVPPPRHPHRTLRHGSPERAGLLPDHLRGLVTDAESFLGPSPTHPWYAGAVLLAGRGDTVALHQPIGTAVRYSAYDAKTDTGVEFPAERQIPMATDTVFDLASVSKLFTSLLAVQQLERGALELEARVASYLPDFAGAGKQDVTIRQLLTHTSGFRAWLPLYKAPSRAEKLRLIWNEAPLSPPGTKYLYSDLNLISLQLVLEEITGHPLDALLRDEITAPLGLRSTRYNPPAAWKPRIAATEDARPPWSGLDRGLVWGEVHDENAFGFGGVAGHAGVFSCAWDLAVLGRTLLNGGTYGHTRILAPESVELLFTDFNTAFPGDEHGLGFELYQHWYMGAMATPRTAGHTGFTGTSLVLDPTTDSFLIVLGNSVHPVRTWRSGSAPRAAAGNHLARAVQVRPARGRTSWFSGMATAASATLTLPELDTAGTADTAETTGTADSTTADSGGRLRCALWWDTEPRSDTLFLEASADDGASWQPVPFTTACDGEEAREHPTGSVTGWSGRVWHRLHADLPRARRLTLRWRYTTDRLYVGRGAYVDAVRVESGGRVLFDEARPTDAARIEAAGWTPSEN,protein production,failed
MSLSLIKVGLVGIGAQMQENLLPSLLQMQDIRIVAACDSDLERARRVHRFISDIPVLDNVPAMLNQVPLDAVVMAGPPQLHFEMGLLAMSKGVNVFVEKPPCATLEELETLIDAARRSDVVSGVGMNFKFARPVRQLREMTQVDEFGETLHIQLNHYANKPRAPLWGLDSTLRSFLLAQAIHTIDLAITFGDGELRRVQSSVQRHDDALIVRADMAFSSGATASLLAGTSFPYFEFDMKLVSSSSTLVELDNLWNITLHEPEHATRPTGAAKRWRGAWQPGPLDSGYERSGYHGELHQFFQAIREHRRFEADFASLLPTYRVIEEICSADAVAQGLQNAHSRIRTGIESLSEGHHHHHH,protein production,not failed
RTNRLSAVQSNKMIVRAMERGVSAERLGKALGLSPQTIRQRFRLLNGICAEVVALLGDTDCPANVFNLLRQMKPLRQIEAAELMIGNKNLSVLLAKALLAATPPDQLVMIKKPSQDHQVSAESMARLERELAALQMQIKTVEEDYGPDVLHLTVIKGYLTKLLANAAVVRWLARHQPEYLKEFQSIAELTELPWADNGPEDDLQSTTAEG,protein production,not failed
MHKKTVILIIFAILGGVMGAAYFTRAWLVMGITSRLVNNIIVNILLGAIIFLILGSLFAGVLVRLINRIEAYLNRQNPMTLIFGSLLTIVGLALALLISQFLFRVPSFFIGTVIPWILMILFGYFGYRIGARLSKIRLEEWRKLFQSRSKKAEEETDKQVLDKETEPNFHHYKILDTNILIDGRIYDLAKTGFLEGTLLVPNFVLYELQYIADSSDSVKRVRGRRGLDILNKLQNEHIMPIEMYEGDFEDIPEVDSKLIALAKQNGGVIVTNDYNLNKVIQFQNVQVLNINSLANALKPRVIPGENLHVMVVKNGTERQQGVAYLDDGTMVVVEDGRYFINKQLDVVVTSAIQTDAGRMIFAKPLHSNKNIEEQANAGKEGKGSNSAKPTKRSR,protein production,failed
MIFERIKSEGLAHLSYLIGSGDEAIVIDPRRDCQVYFDLARSKGMKIKYIFETHRNEDYIIGSLELEKLTDAGIYHGSGVDFKYGNILKKDRQEFIFGALKLTALHTPGHTDESMSYVLTDPDAGKEPIMVFTGDALFVGDVGRTDLYGPEEVPRLAANLYDSIFNKILPLGDGVILCPAHGAGSLCGGAISNREYSTLGLEKVQNPVLKKTEKEEFVKFKLEEKLEFPPYFKKMEQYNLQGPPLLQSLPIPKLLSPDEFKAEMEKGAVVVDTRMPHSFGGALIKGSYSIWLEGLPSFAGWMLPYDKPILLVLEEKEQLETAVRYLVRLGYDNMRGFLNGGIAAWYMEALQIDGFNLLSVHDLKSKLEKDEEIVILDVRSNEEWEEGHIEGARHIYVGHVEENLDEIPKDCPIVVYCGSARRSNIAASVLKKHGYRKIYNVLGSMVAWKNAGYEVVK,protein production,failed
MEGMDPLAVLAESRLLPLLTVRGGEDLLGLARVLEEEGVGALEITLRTEKGLEALKALRKSGLLLGAGTVRSPKEAEAALEAGAAFLVSPGLLEEVAALAQARGVPYLPGVLTPTEVERALALGLSALKFFPAEPFQGVRVLRAYAEVFPEVRFLPTGGIKEEHLPHYAALPNLLAVGGSWLLQGNLEAVRAKVRAAKALLSPQAPG,protein production,not failed
MDLSSPSSFTATIDAPLRAAVFDSAVEAVLLVDPTLDQIVDANNAASALLGHDRDTLLQTRFSALHGAQLPALVVFTQAVFAKGTYWTHALTPLHADGTQLRLEYAGKLLPYRGRSLLLLTMSDLEQ,protein production,failed
MTGEEITAAIHQVLTERMNNRHLDGFGPQSRLNADLYLDSVLMLDLLLHLELDHGITAPEEAIATAAIQTVSDLVELLAGASPATSGASDTAVADGPDVHADVYPDIKVHCVVSCLCDAVKAAGLDHRPMYFGIWDADFAVSDKFELRYHTDHISHGFFCHWFHRLYGVRVTEWYDHSAGKQSNLARLIGLVDARRPTESVMVMLDMFHLPERENKFNQYPFPHYLMVEATPDPETWQVRDPDFRWEGPIAKERILNAVAQPSVGGGYIFDRCTMRLPAAVDIGDYFLACFVSDDNPLIRRLREIVDTHLGCRDGLRLQALGDAVRELPVLSIRKWAYEHGFAFFWRELRLPNDAFLTWCDRIEELALGLPALHLKILRLAQTEDRTCAADIHQTLDRLDALETAIKVKLHEVFVAWCSHQGLTRATPRERRVGAR,protein production,failed
MSADYPRDLIGYGNNPPHPHWPGDARIALSFVLNYEEGGERCVLHGDKESEAFLSEMVAAQPLQGVRHMSMESLYEYGSRAGVWRLLKLFKRRNVPLTVFAVAMAAQRNPEVIRAMVADGHEICSHGYRWIDYQYMDEAQEREHMLEAIRILTELTGQRPVGWYTGRTGPNTRRLVMEEGGFLYDSDTYDDDLPYWDPASTAEKPHLVIPYTLDTNDMRFTQVQGFNNGEQFFQYLKDAFDVLYEEGATAPKMLSIGLHCRLIGRPARMAALERFIQYAQSHDKVWFARREDIARHWHREHPFQETEA,protein production,not failed
MQKVEGIIFDMDGVLFDSERISLEFWMETFEKYGYTMTKEIYTSVMGRNRKGIIEGLTDIYDSSVPIIDLYDEKTKNMIEFMERKGAPIKLGVNELISFLKENGYKMAVATSTKRERAVKRLAKANLKDYFDAIVCGDDVVNSKPNPEIFLKAAKKINVNPKNCIVIEDSPMGVEAAYNGGIRCINVPDLKEPDEQIKSQSHKILENLLEVREYLKSLNSKECHNL,protein production,failed
